From patent US20240261333A1, “NOVEL TARGETS FOR ENHANCING ANTI-TUMOR IMMUNITY” (THE BROAD INSTITUTE, INC., priority 2021, published 2024)

Key:
CAT (human) = CAT (human) (UniProt P04040); test: co-IP, IgG control, lysate of cells with C-FLAG B3GNT2; mass spectrometry
DDX5 (human) = DDX5 (human) (UniProt P17844); test: as above
FAU (human) = FAU (human) (UniProt P62861); test: as above
MYH11 (human) = MYH11 (human) (UniProt P35749); test: as above
PRBP1 (human) = PRBP1 (human) (UniProt P26599); test: as above
PRRC2A (human) = PRRC2A (human) (UniProt P48634); test: as above
UBAP2L (human) = UBAP2L (human) (UniProt Q14157); test: as above
Chain of UBAP2L (human) (Q14157 whole entry): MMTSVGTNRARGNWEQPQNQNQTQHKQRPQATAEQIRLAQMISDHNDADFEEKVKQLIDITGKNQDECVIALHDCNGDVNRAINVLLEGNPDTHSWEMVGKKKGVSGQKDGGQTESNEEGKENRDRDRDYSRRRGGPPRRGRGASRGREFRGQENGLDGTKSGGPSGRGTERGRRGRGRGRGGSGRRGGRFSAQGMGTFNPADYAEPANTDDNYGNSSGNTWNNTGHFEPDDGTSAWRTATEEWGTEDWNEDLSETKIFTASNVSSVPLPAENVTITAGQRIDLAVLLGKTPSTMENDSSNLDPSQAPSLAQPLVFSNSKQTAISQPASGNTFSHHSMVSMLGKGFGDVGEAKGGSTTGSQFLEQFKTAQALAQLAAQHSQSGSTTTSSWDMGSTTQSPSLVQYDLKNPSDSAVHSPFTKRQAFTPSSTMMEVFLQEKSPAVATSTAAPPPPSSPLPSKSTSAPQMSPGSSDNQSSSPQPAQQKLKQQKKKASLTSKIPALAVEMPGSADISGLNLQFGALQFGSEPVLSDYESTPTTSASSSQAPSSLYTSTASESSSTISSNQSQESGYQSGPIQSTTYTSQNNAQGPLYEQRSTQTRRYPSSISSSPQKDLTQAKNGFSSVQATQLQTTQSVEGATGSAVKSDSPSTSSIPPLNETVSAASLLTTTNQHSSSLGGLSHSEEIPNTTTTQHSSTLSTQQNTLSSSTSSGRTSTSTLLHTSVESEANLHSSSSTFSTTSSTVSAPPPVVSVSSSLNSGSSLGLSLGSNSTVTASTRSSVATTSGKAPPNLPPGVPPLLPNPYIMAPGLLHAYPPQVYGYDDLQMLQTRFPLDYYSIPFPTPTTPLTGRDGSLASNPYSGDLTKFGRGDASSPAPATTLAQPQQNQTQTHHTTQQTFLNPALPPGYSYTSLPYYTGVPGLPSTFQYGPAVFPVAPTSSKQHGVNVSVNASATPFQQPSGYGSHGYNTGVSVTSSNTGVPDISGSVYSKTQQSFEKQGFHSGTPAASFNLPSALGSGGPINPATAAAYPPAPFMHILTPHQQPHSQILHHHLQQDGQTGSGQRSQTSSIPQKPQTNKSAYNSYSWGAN

ANXA2 (human) = ANXA2 (human) (UniProt P07355); test: IgG control IP from lysate of cells overexpressing C-FLAG B3GNT2, then mass spectrometry
CAPRIN1 (human) = CAPRIN1 (human) (UniProt Q14444); test: as above
CASC3 (human) = CASC3 (human) (UniProt O15234); test: as above
CPSF6 (human) = CPSF6 (human) (UniProt Q16630); test: as above
EIF3I (human) = EIF3I (human) (UniProt Q13347); test: as above
KHDRBS1 (human) = KHDRBS1 (human) (UniProt Q07666); test: as above
MAGED2 (human) [1] = biological target: MAGED2 (human) (UniProt Q9UNF1); test: as above
Chain of MAGED2 (human) (Q9UNF1 2-606 limits assumed): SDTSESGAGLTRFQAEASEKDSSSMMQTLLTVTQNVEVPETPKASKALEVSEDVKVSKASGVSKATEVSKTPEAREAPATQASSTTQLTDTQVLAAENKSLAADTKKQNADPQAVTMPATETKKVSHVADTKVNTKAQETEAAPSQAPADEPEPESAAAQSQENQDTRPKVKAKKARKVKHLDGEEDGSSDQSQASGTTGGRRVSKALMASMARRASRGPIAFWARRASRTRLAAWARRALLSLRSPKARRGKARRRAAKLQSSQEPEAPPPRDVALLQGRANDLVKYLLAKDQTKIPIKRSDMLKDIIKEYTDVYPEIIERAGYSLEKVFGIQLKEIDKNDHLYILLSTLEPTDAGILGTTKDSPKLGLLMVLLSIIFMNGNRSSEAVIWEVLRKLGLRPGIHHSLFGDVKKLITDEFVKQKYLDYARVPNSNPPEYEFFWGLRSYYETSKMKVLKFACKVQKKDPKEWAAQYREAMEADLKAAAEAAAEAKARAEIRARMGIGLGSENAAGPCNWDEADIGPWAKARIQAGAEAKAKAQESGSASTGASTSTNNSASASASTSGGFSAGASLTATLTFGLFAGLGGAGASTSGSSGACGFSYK

PABPC1 (human) = PABPC1 (human) (UniProt P11940); test: as above
SRP14 (human) [2] = biological target: SRP14 (human) (UniProt P37108); test: as above
Chain of SRP14 (human) (P37108 2-136 limits assumed): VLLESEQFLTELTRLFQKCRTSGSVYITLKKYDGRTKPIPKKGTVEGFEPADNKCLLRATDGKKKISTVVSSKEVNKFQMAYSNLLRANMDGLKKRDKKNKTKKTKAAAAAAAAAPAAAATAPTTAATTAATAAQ

SUPT16H (human) [3] = biological target: SUPT16H (human) (UniProt Q9Y5B9); test: as above
Chain of SUPT16H (human) (Q9Y5B9 2-1047 limits assumed): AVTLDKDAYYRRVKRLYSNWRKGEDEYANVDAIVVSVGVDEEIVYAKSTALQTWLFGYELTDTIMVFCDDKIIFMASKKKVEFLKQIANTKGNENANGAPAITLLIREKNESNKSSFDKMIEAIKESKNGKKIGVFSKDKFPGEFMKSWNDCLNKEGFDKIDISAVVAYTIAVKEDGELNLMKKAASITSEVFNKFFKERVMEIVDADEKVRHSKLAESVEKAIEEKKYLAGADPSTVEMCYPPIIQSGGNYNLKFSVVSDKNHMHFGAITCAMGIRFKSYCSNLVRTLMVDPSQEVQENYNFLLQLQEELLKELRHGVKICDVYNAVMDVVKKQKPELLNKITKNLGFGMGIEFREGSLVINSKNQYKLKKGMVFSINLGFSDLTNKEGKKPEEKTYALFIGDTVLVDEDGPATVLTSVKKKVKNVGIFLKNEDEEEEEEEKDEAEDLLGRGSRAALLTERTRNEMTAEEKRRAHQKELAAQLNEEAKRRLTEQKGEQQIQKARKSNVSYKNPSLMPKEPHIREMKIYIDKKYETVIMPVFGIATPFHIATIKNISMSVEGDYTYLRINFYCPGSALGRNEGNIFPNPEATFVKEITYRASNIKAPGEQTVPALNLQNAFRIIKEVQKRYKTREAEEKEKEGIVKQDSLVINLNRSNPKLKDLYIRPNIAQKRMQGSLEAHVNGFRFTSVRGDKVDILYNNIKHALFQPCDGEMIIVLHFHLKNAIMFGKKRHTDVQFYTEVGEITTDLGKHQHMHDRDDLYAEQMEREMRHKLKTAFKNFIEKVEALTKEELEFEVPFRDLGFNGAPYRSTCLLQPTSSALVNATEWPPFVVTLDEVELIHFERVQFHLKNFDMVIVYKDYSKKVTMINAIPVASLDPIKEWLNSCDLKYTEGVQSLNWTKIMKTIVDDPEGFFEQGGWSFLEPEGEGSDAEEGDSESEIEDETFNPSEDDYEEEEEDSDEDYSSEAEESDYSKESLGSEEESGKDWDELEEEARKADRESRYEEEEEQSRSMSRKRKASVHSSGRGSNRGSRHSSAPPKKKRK

TAF15 (human) [4] = biological target: TAF15 (human) (UniProt Q92804); test: as above
Chain of TAF15 (human) (Q92804 other isoform, or with tags, fused parts or gaps limits assumed): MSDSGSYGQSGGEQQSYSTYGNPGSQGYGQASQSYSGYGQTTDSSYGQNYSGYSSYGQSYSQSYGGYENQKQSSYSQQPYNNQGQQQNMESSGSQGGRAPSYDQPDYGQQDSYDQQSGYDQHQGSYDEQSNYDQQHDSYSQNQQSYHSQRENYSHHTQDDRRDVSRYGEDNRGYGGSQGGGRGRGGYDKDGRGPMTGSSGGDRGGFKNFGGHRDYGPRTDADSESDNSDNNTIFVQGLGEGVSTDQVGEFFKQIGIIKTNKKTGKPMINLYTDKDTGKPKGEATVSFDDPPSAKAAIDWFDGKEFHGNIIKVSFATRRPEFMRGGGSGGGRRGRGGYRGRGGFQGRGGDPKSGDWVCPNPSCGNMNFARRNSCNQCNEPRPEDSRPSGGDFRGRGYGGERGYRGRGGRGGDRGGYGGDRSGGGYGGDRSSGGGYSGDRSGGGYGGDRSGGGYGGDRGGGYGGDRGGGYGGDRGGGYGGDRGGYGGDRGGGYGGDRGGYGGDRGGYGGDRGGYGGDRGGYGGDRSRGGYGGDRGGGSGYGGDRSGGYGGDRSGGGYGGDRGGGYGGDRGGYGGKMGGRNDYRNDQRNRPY

TCP1 (human) [5] = biological target: TCP1 (human) (UniProt P17987); test: as above
Chain of TCP1 (human) (P17987 whole entry): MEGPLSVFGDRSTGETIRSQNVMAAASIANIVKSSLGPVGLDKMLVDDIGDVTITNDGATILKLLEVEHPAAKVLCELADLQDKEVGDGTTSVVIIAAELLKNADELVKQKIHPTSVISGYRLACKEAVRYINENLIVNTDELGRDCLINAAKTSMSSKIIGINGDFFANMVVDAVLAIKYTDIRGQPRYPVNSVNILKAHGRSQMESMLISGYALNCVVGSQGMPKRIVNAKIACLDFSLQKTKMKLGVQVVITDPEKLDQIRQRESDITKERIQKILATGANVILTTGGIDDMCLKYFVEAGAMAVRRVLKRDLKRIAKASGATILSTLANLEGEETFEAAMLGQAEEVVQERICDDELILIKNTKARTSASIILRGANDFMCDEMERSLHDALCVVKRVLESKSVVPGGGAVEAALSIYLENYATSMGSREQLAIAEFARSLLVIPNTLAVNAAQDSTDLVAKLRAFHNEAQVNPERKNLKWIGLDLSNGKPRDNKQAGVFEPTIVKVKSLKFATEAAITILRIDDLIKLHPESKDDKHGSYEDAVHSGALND

TFAM (human) [6] = biological target: TFAM (human) (UniProt Q00059); test: as above
Chain of TFAM (human) (Q00059 43-246 limits assumed): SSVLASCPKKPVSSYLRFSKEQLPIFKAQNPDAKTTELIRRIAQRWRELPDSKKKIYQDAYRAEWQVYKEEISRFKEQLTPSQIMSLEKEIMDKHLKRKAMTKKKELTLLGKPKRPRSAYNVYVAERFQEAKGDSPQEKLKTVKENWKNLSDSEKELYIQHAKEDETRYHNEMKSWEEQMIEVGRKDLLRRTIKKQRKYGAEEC

TIMP3 (human) [7] = biological target: TIMP3 (human) (UniProt P35625); test: as above
Chain of TIMP3 (human) (P35625 24-211 limits assumed): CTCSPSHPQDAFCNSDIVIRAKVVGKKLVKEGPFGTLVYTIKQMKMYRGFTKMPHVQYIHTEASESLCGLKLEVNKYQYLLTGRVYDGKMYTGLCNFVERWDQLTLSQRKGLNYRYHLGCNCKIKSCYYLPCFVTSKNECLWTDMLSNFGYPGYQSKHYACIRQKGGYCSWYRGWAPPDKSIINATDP

VIM (human) = VIM (human) (UniProt P08670); test: as above
Chain of VIM (human) (P08670 2-466 limits assumed): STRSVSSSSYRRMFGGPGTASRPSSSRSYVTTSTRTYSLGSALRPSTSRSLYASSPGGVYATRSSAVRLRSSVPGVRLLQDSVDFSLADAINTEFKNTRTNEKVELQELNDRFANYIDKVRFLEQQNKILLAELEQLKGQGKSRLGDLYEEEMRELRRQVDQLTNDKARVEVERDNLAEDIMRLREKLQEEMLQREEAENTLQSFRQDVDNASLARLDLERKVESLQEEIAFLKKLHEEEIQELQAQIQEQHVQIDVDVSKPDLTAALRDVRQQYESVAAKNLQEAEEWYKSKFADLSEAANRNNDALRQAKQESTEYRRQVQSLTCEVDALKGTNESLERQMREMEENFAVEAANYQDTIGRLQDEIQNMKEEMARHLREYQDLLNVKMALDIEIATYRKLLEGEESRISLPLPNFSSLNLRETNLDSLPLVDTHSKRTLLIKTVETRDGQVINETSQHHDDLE

MAGED2 (human) [8] = biological target: MAGED2 (human) (UniProt Q9UNF1); test: co-IP with mouse anti-FLAG from lysate of cells overexpressing C-FLAG B3GNT2, then mass spectrometry
SRP14 (human) [9] = biological target: SRP14 (human) (UniProt P37108); test: as above
SUPT16H (human) [10] = biological target: SUPT16H (human) (UniProt Q9Y5B9); test: as above
TAF15 (human) [11] = biological target: TAF15 (human) (UniProt Q92804); test: as above
TCP1 (human) [12] = biological target: TCP1 (human) (UniProt P17987); test: as above
TFAM (human) [13] = biological target: TFAM (human) (UniProt Q00059); test: as above
TIMP3 (human) [14] = biological target: TIMP3 (human) (UniProt P35625); test: as above

Substance: IgG control (Millipore Sigma 12-371) (antibody)
- co-IP mass spectrometry count (CAT (human)): 3
- co-IP mass spectrometry count (DDX5 (human)): 16
- co-IP mass spectrometry count (FAU (human)): 5
- co-IP mass spectrometry count (MYH11 (human)): 5
- co-IP mass spectrometry count (PRBP1 (human)): 6
- co-IP mass spectrometry count (PRRC2A (human)): 3
- co-IP mass spectrometry count (UBAP2L (human)): 15
- co-IP mass spectrometry count (C-term IgG) (ANXA2 (human)): 16
- co-IP mass spectrometry count (C-term IgG) (CAPRIN1 (human)): 6
- co-IP mass spectrometry count (C-term IgG) (CASC3 (human)): 0
- co-IP mass spectrometry count (C-term IgG) (CPSF6 (human)): 33
- co-IP mass spectrometry count (C-term IgG) (EIF3I (human)): 0
- co-IP mass spectrometry count (C-term IgG) (KHDRBS1 (human)): 7
- co-IP mass spectrometry count (C-term IgG) (MAGED2 (human) [1]): 0
- co-IP mass spectrometry count (C-term IgG) (PABPC1 (human)): 30
- co-IP mass spectrometry count (C-term IgG) (SRP14 (human) [2]): 0
- co-IP mass spectrometry count (C-term IgG) (SUPT16H (human) [3]): 0
- co-IP mass spectrometry count (C-term IgG) (TAF15 (human) [4]): 4
- co-IP mass spectrometry count (C-term IgG) (TCP1 (human) [5]): 0
- co-IP mass spectrometry count (C-term IgG) (TFAM (human) [6]): 0
- co-IP mass spectrometry count (C-term IgG) (TIMP3 (human) [7]): 0
- co-IP mass spectrometry count (C-term IgG) (VIM (human)): 337

Substance: C-terminal FLAG tagged B3GNT2 (from UniProt Q9NY97 1-397) (enzyme)
- co-IP mass spectrometry count (C-term flag) (MAGED2 (human) [8]): 3
- co-IP mass spectrometry count (C-term flag) (SRP14 (human) [9]): 3
- co-IP mass spectrometry count (C-term flag) (SUPT16H (human) [10]): 3
- co-IP mass spectrometry count (C-term flag) (TAF15 (human) [11]): 10
- co-IP mass spectrometry count (C-term flag) (TCP1 (human) [12]): 3
- co-IP mass spectrometry count (C-term flag) (TFAM (human) [13]): 3
- co-IP mass spectrometry count (C-term flag) (TIMP3 (human) [14]): 3
